Target: S-peptide S-peptide (Bos taurus, UniProt P61823)
Assay: ITC

Chain of S-peptide S-peptide (P61823 27-46): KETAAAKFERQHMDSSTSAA

Kd: 130 nM
B1: RNase S-protein S-protein (protein)
chain: SSSNYCNQMMKSRNLTKDRCKPVNTFVHESLADVQAVCSQKNVACKNGQTNCYQSYSTMSITDCRETGSSKYPNCAYKTTQANKHIIVACEGNPYVPVHFDASV

— paper PMC6461108 (2019)
